According to the supplement of paper PMC10065799, “High-throughput profiling of sequence recognition by tyrosine kinases and SH2 domains using bacterial peptide display” (eLife, 2023):

These sequences were tested against Grb2 SH2 (UniProt P62993) (assay: SH2 binding enrichment of the phosphorylated peptide, bacterial display (enrichment ratio); higher = better substrate or ligand; peptides without Tyr show the background).
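Throughout, for SH2 binding enrichment of the phosphorylated peptide, bacterial display: peptide library displayed on the E. coli surface as eCPX fusions, selected cells deep-sequenced, score is each peptide's frequency after selection divided by its frequency in the input.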
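Throughout, for phosphorylation enrichment, bacterial display: 11-residue human phosphosite peptides and single-mutation variants displayed on the E. coli surface, counted by deep sequencing, each peptide's frequency after selection divided by its frequency in the unselected input library; frequency after pTyr selection over input frequency; kinase dosed for 20-30% of maximal phosphorylation in three min.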

Sequence of Grb2 SH2 (P62993 whole entry, looked up, the tested form may be a part): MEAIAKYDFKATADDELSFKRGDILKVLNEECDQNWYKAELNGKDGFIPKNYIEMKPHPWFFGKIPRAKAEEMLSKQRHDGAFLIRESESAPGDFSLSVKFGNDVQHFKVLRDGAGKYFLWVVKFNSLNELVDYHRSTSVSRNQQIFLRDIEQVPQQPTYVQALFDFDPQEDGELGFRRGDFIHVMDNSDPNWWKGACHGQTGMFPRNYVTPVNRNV

First: NDQPDYDSVAS [GIT2_Y392]
Second: LMVFEYMRHGD [NTRK1_Y591]
The SH2 binding enrichment of the first is lower: 0.902 for the first, 1.67 for the second.

Going from TRHDEYLEVTK [MAP1A_Y2217] to AEVDTYCRHNF [HLA-DRB1_Y107_A103E_YF], the SH2 binding enrichment falls from 1.15 to 0.826.

Going from KMKGDYYRYLA [YWHAG_Y130] to FKRAVYCIIGR [NUP93_Y391_YF], the SH2 binding enrichment falls from 1.76 to 1.01.

Compared with VPLLEYYRDIF [CDAN1_Y712], DHYNQYEQQKM [CHD7_Y75] is lower in SH2 binding enrichment: 0.911 for the first, 0.56 for the second.

Compared with YCIDHYLGKEM [G6PD_Y202_R198C], WLQKLYNNFVN [MYO5C_Y526] is higher in SH2 binding enrichment: 0.981 for the first, 1.31 for the second.

First: ILDEAYVMAIV [EGFR_Y764_S768I]
Second: PSQRHYVFFFS [PTEN_Y174_R173H_YF]
The SH2 binding enrichment of the first is lower: 0.791 for the first, 1.25 for the second.

Going from RLEKEYFDQHF [NPC1_Y394] to VILENYGADID [DNAH5_Y596_L591V], the SH2 binding enrichment falls from 0.865 to 0.739.

First: KVVQEYERVII [NPHS2_Y131]
Second: CEHFSYYGMKA [SLC15A2_Y60_R57H]
The SH2 binding enrichment of the first is lower: 0.811 for the first, 0.961 for the second.

First: PSQRPYVYYYS [PTEN_Y174_R173P]
Second: GGSDCYGSLRP [MYLK_Y846_R845C]
The SH2 binding enrichment of the first is higher: 1.61 for the first, 0.694 for the second.

Going from PKAWNYELPAT [PROM1_Y34] to ERDFTYDELLN [EIF2S2_Y176_E177D_YF], the SH2 binding enrichment rises from 0.996 to 1.07.

First: YSQNIYIQNRN [PKP2_Y631]
Second: TLLERYGMIEI [ACSF3_Y355_T358I]
The SH2 binding enrichment of the first is higher: 0.896 for the first, 0.748 for the second.

Compared with LKGQVYILGLE [ASS1_Y359_R363L], AQAGEYGAEAL [HBA1_Y25_H21Q] is lower in SH2 binding enrichment: 0.935 for the first, 0.931 for the second.

Going from WIPIQCPIISE [NOG_Y222_Y222C] to VEGIGYDFIPT [CBS_Y308], the SH2 binding enrichment falls from 0.871 to 0.79.

Going from CGTPDNIAPEI [PRKCG_Y521_Y521N] to YFRDGHMPRQY [GSS_Y270_Y270H], the SH2 binding enrichment rises from 0.777 to 1.04.

With VLPIDYYFPPQ [AR_Y552] the SH2 binding enrichment was 0.962.

The sequences below were run against c-Src SH2 in the same assay as above.

First: NDQPDYDSVAS [GIT2_Y392]
Second: LMVFEYMRHGD [NTRK1_Y591]
The SH2 binding enrichment of the first is lower: 0.658 for the first, 1.23 for the second.

Going from TRHDEYLEVTK [MAP1A_Y2217] to AEVDTYCRHNF [HLA-DRB1_Y107_A103E_YF], the SH2 binding enrichment falls from 0.506 to 0.454.

Compared with KMKGDYYRYLA [YWHAG_Y130], FKRAVYCIIGR [NUP93_Y391_YF] is lower in SH2 binding enrichment: 1.53 for the first, 1.06 for the second.

First: VPLLEYYRDIF [CDAN1_Y712]
Second: DHYNQYEQQKM [CHD7_Y75]
The SH2 binding enrichment of the first is higher: 1.05 for the first, 0.472 for the second.

First: YCIDHYLGKEM [G6PD_Y202_R198C]
Second: WLQKLYNNFVN [MYO5C_Y526]
The SH2 binding enrichment of the first is lower: 1.01 for the first, 1.28 for the second.

Compared with ILDEAYVMAIV [EGFR_Y764_S768I], PSQRHYVFFFS [PTEN_Y174_R173H_YF] is higher in SH2 binding enrichment: 0.432 for the first, 0.896 for the second.

Compared with RLEKEYFDQHF [NPC1_Y394], VILENYGADID [DNAH5_Y596_L591V] is lower in SH2 binding enrichment: 0.604 for the first, 0.454 for the second.

Going from KVVQEYERVII [NPHS2_Y131] to CEHFSYYGMKA [SLC15A2_Y60_R57H], the SH2 binding enrichment rises from 0.564 to 1.24.

First: PSQRPYVYYYS [PTEN_Y174_R173P]
Second: GGSDCYGSLRP [MYLK_Y846_R845C]
The SH2 binding enrichment of the first is higher: 3.29 for the first, 0.36 for the second.

Compared with PKAWNYELPAT [PROM1_Y34], ERDFTYDELLN [EIF2S2_Y176_E177D_YF] is higher in SH2 binding enrichment: 0.851 for the first, 1.2 for the second.

Going from YSQNIYIQNRN [PKP2_Y631] to TLLERYGMIEI [ACSF3_Y355_T358I], the SH2 binding enrichment rises from 0.691 to 0.983.

Compared with LKGQVYILGLE [ASS1_Y359_R363L], AQAGEYGAEAL [HBA1_Y25_H21Q] is higher in SH2 binding enrichment: 0.597 for the first, 0.608 for the second.

Going from WIPIQCPIISE [NOG_Y222_Y222C] to VEGIGYDFIPT [CBS_Y308], the SH2 binding enrichment rises from 0.513 to 7.71.

Going from CGTPDNIAPEI [PRKCG_Y521_Y521N] to YFRDGHMPRQY [GSS_Y270_Y270H], the SH2 binding enrichment rises from 0.485 to 0.51.

VLPIDYYFPPQ [AR_Y552] showed an SH2 binding enrichment of 1.03.

What follows are sequences tested against SHP2-C SH2 in the same assay as above.

Going from NDQPDYDSVAS [GIT2_Y392] to LMVFEYMRHGD [NTRK1_Y591], the SH2 binding enrichment rises from 0.767 to 1.99.

First: TRHDEYLEVTK [MAP1A_Y2217]
Second: AEVDTYCRHNF [HLA-DRB1_Y107_A103E_YF]
The SH2 binding enrichment of the first is lower: 0.598 for the first, 0.696 for the second.

Compared with KMKGDYYRYLA [YWHAG_Y130], FKRAVYCIIGR [NUP93_Y391_YF] is lower in SH2 binding enrichment: 1.75 for the first, 0.686 for the second.

First: VPLLEYYRDIF [CDAN1_Y712]
Second: DHYNQYEQQKM [CHD7_Y75]
The SH2 binding enrichment of the first is higher: 0.968 for the first, 0.824 for the second.

First: YCIDHYLGKEM [G6PD_Y202_R198C]
Second: WLQKLYNNFVN [MYO5C_Y526]
The SH2 binding enrichment of the first is lower: 1.05 for the first, 1.18 for the second.

Compared with ILDEAYVMAIV [EGFR_Y764_S768I], PSQRHYVFFFS [PTEN_Y174_R173H_YF] is higher in SH2 binding enrichment: 0.581 for the first, 1.16 for the second.

First: RLEKEYFDQHF [NPC1_Y394]
Second: VILENYGADID [DNAH5_Y596_L591V]
The SH2 binding enrichment of the first is higher: 0.821 for the first, 0.54 for the second.

Going from KVVQEYERVII [NPHS2_Y131] to CEHFSYYGMKA [SLC15A2_Y60_R57H], the SH2 binding enrichment rises from 0.653 to 0.661.

Compared with PSQRPYVYYYS [PTEN_Y174_R173P], GGSDCYGSLRP [MYLK_Y846_R845C] is lower in SH2 binding enrichment: 2.81 for the first, 0.608 for the second.

Going from PKAWNYELPAT [PROM1_Y34] to ERDFTYDELLN [EIF2S2_Y176_E177D_YF], the SH2 binding enrichment rises from 0.631 to 0.789.

Going from YSQNIYIQNRN [PKP2_Y631] to TLLERYGMIEI [ACSF3_Y355_T358I], the SH2 binding enrichment falls from 0.906 to 0.884.

First: LKGQVYILGLE [ASS1_Y359_R363L]
Second: AQAGEYGAEAL [HBA1_Y25_H21Q]
The SH2 binding enrichment of the first is higher: 1.02 for the first, 0.842 for the second.

First: WIPIQCPIISE [NOG_Y222_Y222C]
Second: VEGIGYDFIPT [CBS_Y308]
The SH2 binding enrichment of the first is lower: 0.885 for the first, 1.02 for the second.

Compared with CGTPDNIAPEI [PRKCG_Y521_Y521N], YFRDGHMPRQY [GSS_Y270_Y270H] is higher in SH2 binding enrichment: 0.533 for the first, 0.821 for the second.

VLPIDYYFPPQ [AR_Y552] was tested, and the SH2 binding enrichment was 0.85.

Each sequence was assayed against FGFR1 (UniProt P11362) (assay: phosphorylation enrichment, bacterial display (enrichment ratio); higher = better substrate or ligand; peptides without Tyr show the background).
Sequence of FGFR1 (P11362 whole entry, looked up): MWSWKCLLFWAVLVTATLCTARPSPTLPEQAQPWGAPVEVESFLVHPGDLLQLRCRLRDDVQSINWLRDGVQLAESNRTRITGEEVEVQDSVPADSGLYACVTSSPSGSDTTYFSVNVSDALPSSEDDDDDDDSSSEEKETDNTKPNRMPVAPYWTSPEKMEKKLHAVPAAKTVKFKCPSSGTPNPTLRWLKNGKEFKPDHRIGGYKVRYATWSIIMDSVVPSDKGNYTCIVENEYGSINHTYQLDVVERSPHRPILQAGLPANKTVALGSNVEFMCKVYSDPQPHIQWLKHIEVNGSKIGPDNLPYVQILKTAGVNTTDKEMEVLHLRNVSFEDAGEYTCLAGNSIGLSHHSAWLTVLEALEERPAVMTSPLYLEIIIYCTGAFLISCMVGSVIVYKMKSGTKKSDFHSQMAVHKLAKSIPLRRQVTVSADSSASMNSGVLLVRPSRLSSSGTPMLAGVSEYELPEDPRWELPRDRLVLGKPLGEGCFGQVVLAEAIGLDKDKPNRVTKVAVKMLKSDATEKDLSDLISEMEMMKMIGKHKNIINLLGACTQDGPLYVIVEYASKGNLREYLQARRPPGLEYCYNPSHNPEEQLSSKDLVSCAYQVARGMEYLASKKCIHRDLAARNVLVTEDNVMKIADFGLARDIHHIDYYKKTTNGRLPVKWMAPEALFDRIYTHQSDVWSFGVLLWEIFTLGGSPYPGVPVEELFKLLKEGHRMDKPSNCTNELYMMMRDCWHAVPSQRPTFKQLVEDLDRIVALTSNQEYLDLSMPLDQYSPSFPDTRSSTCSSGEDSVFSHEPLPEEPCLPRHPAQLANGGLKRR

First: NDQPDYDSVAS [GIT2_Y392]
Second: LMVFEYMRHGD [NTRK1_Y591]
The phosphorylation enrichment of the first is higher: 0.522 for the first, 0.5 for the second.

Compared with TRHDEYLEVTK [MAP1A_Y2217], AEVDTYCRHNF [HLA-DRB1_Y107_A103E_YF] is lower in phosphorylation enrichment: 0.589 for the first, 0.532 for the second.

Compared with KMKGDYYRYLA [YWHAG_Y130], FKRAVYCIIGR [NUP93_Y391_YF] is lower in phosphorylation enrichment: 8.74 for the first, 0.511 for the second.

Going from VPLLEYYRDIF [CDAN1_Y712] to DHYNQYEQQKM [CHD7_Y75], the phosphorylation enrichment falls from 3.63 to 0.438.

Going from YCIDHYLGKEM [G6PD_Y202_R198C] to WLQKLYNNFVN [MYO5C_Y526], the phosphorylation enrichment falls from 0.567 to 0.459.

Compared with ILDEAYVMAIV [EGFR_Y764_S768I], PSQRHYVFFFS [PTEN_Y174_R173H_YF] is lower in phosphorylation enrichment: 0.963 for the first, 0.759 for the second.

Going from RLEKEYFDQHF [NPC1_Y394] to VILENYGADID [DNAH5_Y596_L591V], the phosphorylation enrichment falls from 1.39 to 0.557.

Compared with KVVQEYERVII [NPHS2_Y131], CEHFSYYGMKA [SLC15A2_Y60_R57H] is higher in phosphorylation enrichment: 0.633 for the first, 5.26 for the second.

First: PSQRPYVYYYS [PTEN_Y174_R173P]
Second: GGSDCYGSLRP [MYLK_Y846_R845C]
The phosphorylation enrichment of the first is higher: 4.69 for the first, 0.351 for the second.

First: PKAWNYELPAT [PROM1_Y34]
Second: ERDFTYDELLN [EIF2S2_Y176_E177D_YF]
The phosphorylation enrichment of the first is higher: 0.582 for the first, 0.58 for the second.

Going from YSQNIYIQNRN [PKP2_Y631] to TLLERYGMIEI [ACSF3_Y355_T358I], the phosphorylation enrichment rises from 0.482 to 0.515.

Going from LKGQVYILGLE [ASS1_Y359_R363L] to AQAGEYGAEAL [HBA1_Y25_H21Q], the phosphorylation enrichment rises from 0.467 to 0.557.

First: WIPIQCPIISE [NOG_Y222_Y222C]
Second: VEGIGYDFIPT [CBS_Y308]
The phosphorylation enrichment of the first is lower: 0.54 for the first, 0.588 for the second.

Compared with CGTPDNIAPEI [PRKCG_Y521_Y521N], YFRDGHMPRQY [GSS_Y270_Y270H] is higher in phosphorylation enrichment: 0.51 for the first, 0.531 for the second.

VLPIDYYFPPQ [AR_Y552] was tested, and the phosphorylation enrichment was 15.4.
